According to patent publication US20200405852A1 (BIOVERATIV USA, published 2020):
Substitutions are numbered along the chain they refer to. One block for each binder: values may come before it.

How the values were obtained:
[1] = target: T1, activated human complement C1s (human, UniProt P09871 16-688); assay: cell-based or functional assay
T1 sequence: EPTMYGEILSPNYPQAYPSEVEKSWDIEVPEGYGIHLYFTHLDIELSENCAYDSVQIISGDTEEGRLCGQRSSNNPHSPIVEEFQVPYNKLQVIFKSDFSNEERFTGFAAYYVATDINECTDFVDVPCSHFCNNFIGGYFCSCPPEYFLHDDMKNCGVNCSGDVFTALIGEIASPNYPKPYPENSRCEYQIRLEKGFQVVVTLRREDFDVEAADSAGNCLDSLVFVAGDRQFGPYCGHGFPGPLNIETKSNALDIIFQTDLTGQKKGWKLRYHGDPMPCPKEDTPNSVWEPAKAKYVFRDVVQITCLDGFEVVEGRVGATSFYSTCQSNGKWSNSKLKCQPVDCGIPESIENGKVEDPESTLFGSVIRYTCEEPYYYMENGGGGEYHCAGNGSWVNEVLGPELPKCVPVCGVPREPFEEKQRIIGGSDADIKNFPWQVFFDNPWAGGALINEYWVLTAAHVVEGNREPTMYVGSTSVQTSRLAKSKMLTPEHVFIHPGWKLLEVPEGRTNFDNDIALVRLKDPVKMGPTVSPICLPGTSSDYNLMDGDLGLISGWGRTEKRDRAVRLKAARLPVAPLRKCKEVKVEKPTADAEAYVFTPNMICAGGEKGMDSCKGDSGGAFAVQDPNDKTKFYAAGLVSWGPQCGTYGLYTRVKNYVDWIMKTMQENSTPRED

[2] = target: T1, activated human complement C1s; assay: direct binding of antibody to activated C1s (aC1s); assay format not stated
[3] = target: T1, activated human complement C1s; assay: competition binding to active C1s; competitor 50 pM biotinylated TNT005 (Biot-005)
Protocol: All 15 combinations (VH variant 1+Vk variant 1; VH variant 1+Vk variant 2; VH variant 1+Vk variant 5; VH variant 2+Vk variant 1; VH variant 2+Vk variant 2; VH variant 2+Vk variant 5; VH variant 3+Vk variant 1; VH variant 3+Vk variant 2; VH variant 3+Vk variant 5; VH variant 4+Vk variant 1; VH variant 4+Vk variant 2; VH variant 4+Vk variant 5; VH variant 5+Vk variant 1; VH variant 5+Vk variant 2; VH variant 5+Vk variant 5) were produced. Each humanized variant was tested for the ability to compete with biotinylated TNT005 for binding to active C1s.

[4] = target: T1, activated human complement C1s; assay: kinetic characterization of binding to active human C1s; instrument not stated
[5] = target: T1, activated human complement C1s; assay: kinetic characterization of binding to active human C1s; instrument not stated; column head kdis

B1: TNT005.001 (antibody, V domains shown)
VH: EVQLQQSGAELVRPGASVKLSCTASGFNIKDDYIHWVKQRPEQGLEWIGRIDPADGHTKYAPKFQVKATITADTSSNTAYLQLSSLTSEDTAVYYCARYGYGREVFDYWGQGTTLTVSS
VL: DIVLTQSPASLAVSLGQRATISCKASQSVDYDGDSYMNWYQQKTGQPPKILIYDASNLESGIPARFSGSGSGTDFTLNIHPVEEEDAAIYYCQQSNEDPWTFGGGTKLEIK
notes: Unlabelled parental antibody; also called parental TNT005 (not biotinylated)
IC50 of classical complement pathway inhibition (commercial CP activation assay) [1]: 1.06 nM
EC50 [2]: 0.0559 nM
IC50 [3]: 0.0395 nM

B2: humanized TNT005 variant VH variant 3+Vk variant 2 (antibody, V domains shown)
VH: QVQLVQSGAEVKKPGASVKLSCTASGFNIKDDYIHWVKQAPGQGLEWIGRIDPADGHTKYAPKFQVKVTITADTSTSTAYLELSSLRSEDTAVYYCARYGYGREVFDYWGQGTTVTVSS
VL: B1 VL with A9D, Q17E, T44P, N78T, H80S, P81S, V82L, E84P, A87F, L108V
notes: also called VH variant 3 + VL variant 2
IC50 of classical complement pathway inhibition (commercial CP activation assay) [1]: 1.26 nM
EC50 [2]: 0.163 nM
Kd [4]: 0.585 nM
kon [4]: 838000 M⁻¹ s⁻¹
IC50 [3]: 0.183 nM
koff [5]: 0.00049 s⁻¹

B3: biotinylated TNT005 (antibody, V domains shown)
VH: B1 VH
VL: B1 VL
notes: Parental antibody; also called Biot-005; parental TNT005
EC50 [2]: 0.0828 nM

B6: humanized TNT005 variant VH variant 4+Vk variant 5 (antibody, V domains shown)
VH: B2 VH with L20V, K38R, L81M
VL: DIVLTQSPDSLAVSLGERATISCKASQSVDYDGDSYMNWYQQKPGQPPKLLIYDASNLESGIPARFSGSGSGTDFTLTISSLEPEDFAVYYCQQSNEDPWTFGGGTKVEIK
notes: also called VH variant 4 + VL variant 5
IC50 of classical complement pathway inhibition (commercial CP activation assay) [1]: 1.54 nM
EC50 [2]: 0.205 nM
IC50 [3]: 0.156 nM

B7: humanized TNT005 variant VH variant 4+Vk variant 1 (antibody, V domains shown)
VH: B2 VH with L20V, K38R, L81M
VL: B6 VL with P44T, L50I, P84E, V89I
notes: also called VH variant 4 + VL variant 1
IC50 of classical complement pathway inhibition (commercial CP activation assay) [1]: 1.35 nM
EC50 [2]: 0.152 nM
IC50 [3]: 0.152 nM

B8: humanized TNT005 variant VH variant 2+Vk variant 1 (antibody, V domains shown)
VH: B2 VH with Q1E, V68A, S77N
VL: B6 VL with P44T, L50I, P84E, V89I
notes: also called VH variant 2 + VL variant 1
IC50 of classical complement pathway inhibition (commercial CP activation assay) [1]: 1.23 nM
EC50 [2]: 0.137 nM
Kd [4]: 0.251 nM
kon [4]: 829000 M⁻¹ s⁻¹
IC50 [3]: 0.144 nM
koff [5]: 0.000208 s⁻¹

B9: humanized TNT005 variant VH variant 3+Vk variant 1 (antibody, V domains shown)
VH: B2 VH
VL: B6 VL with P44T, L50I, P84E, V89I
notes: also called VH variant 3 + VL variant 1
IC50 of classical complement pathway inhibition (commercial CP activation assay) [1]: 1.27 nM
EC50 [2]: 0.168 nM
IC50 [3]: 0.179 nM

B13: humanized TNT005 variant VH variant 2+Vk variant 5 (antibody, V domains shown)
VH: B2 VH with Q1E, V68A, S77N
VL: B6 VL
notes: also called VH variant 2 + VL variant 5
IC50 of classical complement pathway inhibition (commercial CP activation assay) [1]: 1.27 nM
EC50 [2]: 0.124 nM
Kd [4]: 0.208 nM
kon [4]: 798000 M⁻¹ s⁻¹
IC50 [3]: 0.168 nM
koff [5]: 0.000166 s⁻¹

Next, values leading:

IC50 of classical complement pathway inhibition (commercial CP activation assay) [1]: 1.31 nM
EC50 [2]: 0.119 nM
IC50 [3]: 0.158 nM
B4: humanized TNT005 variant VH variant 4+Vk variant 2 (antibody, V domains shown)
VH: B2 VH with L20V, K38R, L81M
VL: B6 VL with L50I, V89I
notes: also called VH variant 4 + VL variant 2

IC50 of classical complement pathway inhibition (commercial CP activation assay) [1]: 1.26 nM
EC50 [2]: 0.134 nM
Kd [4]: 0.206 nM
kon [4]: 835000 M⁻¹ s⁻¹
IC50 [3]: 0.158 nM
koff [5]: 0.000172 s⁻¹
B5: humanized TNT005 variant VH variant 2+Vk variant 2 (antibody, V domains shown)
VH: B2 VH with Q1E, V68A, S77N
VL: B6 VL with L50I, V89I
notes: also called VH variant 2 + VL variant 2

IC50 of classical complement pathway inhibition (commercial CP activation assay) [1]: 1.06 nM
EC50 [2]: 0.113 nM
Kd [4]: 0.457 nM
kon [4]: 1.03e+06 M⁻¹ s⁻¹
IC50 [3]: 0.0449 nM
koff [5]: 0.000471 s⁻¹
B10: humanized TNT005 variant VH variant 5+Vk variant 1 (antibody, V domains shown)
VH: B2 VH with L20V, T23A, K38R, L81M
VL: B6 VL with P44T, L50I, P84E, V89I
notes: also called VH variant 5 + VL variant 1

IC50 of classical complement pathway inhibition (commercial CP activation assay) [1]: 1.14 nM
EC50 [2]: 0.088 nM
Kd [4]: 0.208 nM
kon [4]: 818000 M⁻¹ s⁻¹
IC50 [3]: 0.0557 nM
koff [5]: 0.00017 s⁻¹
B11: humanized TNT005 variant VH variant 1+Vk variant 2 (antibody, V domains shown)
VH: B2 VH with Q1E, V11L, V68A, S77N, E82Q, R87T
VL: B6 VL with L50I, V89I
notes: also called VH variant 1 + VL variant 2

IC50 of classical complement pathway inhibition (commercial CP activation assay) [1]: 1.38 nM
EC50 [2]: 0.138 nM
IC50 [3]: 0.158 nM
B12: humanized TNT005 variant VH variant 3+Vk variant 5 (antibody, V domains shown)
VH: B2 VH
VL: B6 VL
notes: also called VH variant 3 + VL variant 5

IC50 of classical complement pathway inhibition (commercial CP activation assay) [1]: 1.31 nM
EC50 [2]: 0.164 nM
IC50 [3]: 0.148 nM
B14: humanized TNT005 variant VH variant 5+Vk variant 2 (antibody, V domains shown)
VH: B2 VH with L20V, T23A, K38R, L81M
VL: B6 VL with L50I, V89I
notes: also called VH variant 5 + VL variant 2

IC50 of classical complement pathway inhibition (commercial CP activation assay) [1]: 1.26 nM
EC50 [2]: 0.107 nM
Kd [4]: 0.217 nM
kon [4]: 776000 M⁻¹ s⁻¹
IC50 [3]: 0.129 nM
koff [5]: 0.000168 s⁻¹
B15: humanized TNT005 variant VH variant 1+Vk variant 5 (antibody, V domains shown)
VH: B2 VH with Q1E, V11L, V68A, S77N, E82Q, R87T
VL: B6 VL
notes: also called VH variant 1 + VL variant 5

IC50 of classical complement pathway inhibition (commercial CP activation assay) [1]: 1.2 nM
EC50 [2]: 0.201 nM
Kd [4]: 0.228 nM
kon [4]: 864000 M⁻¹ s⁻¹
IC50 [3]: 0.124 nM
koff [5]: 0.000197 s⁻¹
B16: humanized TNT005 variant VH variant 1+Vk variant 1 (antibody, V domains shown)
VH: B2 VH with Q1E, V11L, V68A, S77N, E82Q, R87T
VL: B6 VL with P44T, L50I, P84E, V89I
notes: also called VH variant 1 + VL variant 1

IC50 of classical complement pathway inhibition (commercial CP activation assay) [1]: 1.33 nM
EC50 [2]: 0.165 nM
IC50 [3]: 0.137 nM
B17: humanized TNT005 variant VH variant 5+Vk variant 5 (antibody, V domains shown)
VH: B2 VH with L20V, T23A, K38R, L81M
VL: B6 VL
notes: also called VH variant 5 + VL variant 5
